Results: article PMC6784373, “Development of a Label-Free Electrochemical Aptasensor for the Detection of Tau381 and its Preliminary Application in AD and Non-AD Patients’ Sera”

Target: tau381 (1N3R as printed) (human, UniProt P10636-4 1-381)
Assay: electrochemical aptasensor (DPV, EIS); aptamer immobilized on Au NP/thionin/carboxyl graphene GCE; linear 1.0-100 pM, LOD 0.70 pM (sensor values, not Kd); 0.1 M PBS pH 7.0, 5 uM aptamer for immobilization, 30 min tau381 incubation, DPV -0.6 to 0.2 V; EIS in 10 mM [Fe(CN)6]3-/4-; temperature not stated
Details: protein: commercial

tau381 (1N3R as printed), sequence (P10636 other isoform, or with tags, fused parts or gaps): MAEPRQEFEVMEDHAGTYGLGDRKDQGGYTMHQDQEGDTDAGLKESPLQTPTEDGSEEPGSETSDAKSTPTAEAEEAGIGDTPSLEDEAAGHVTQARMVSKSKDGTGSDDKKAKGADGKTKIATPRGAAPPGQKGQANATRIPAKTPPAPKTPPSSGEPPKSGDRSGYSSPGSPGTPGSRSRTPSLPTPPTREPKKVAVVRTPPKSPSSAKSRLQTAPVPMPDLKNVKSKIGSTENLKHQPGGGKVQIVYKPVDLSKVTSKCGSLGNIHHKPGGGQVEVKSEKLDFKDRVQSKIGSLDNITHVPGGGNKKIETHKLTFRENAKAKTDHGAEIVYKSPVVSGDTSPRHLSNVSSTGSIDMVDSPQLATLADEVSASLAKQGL

## GCGGAGCGTGGCAGG (ssDNA, 5'-H2N) [tau381 aptamer (5'-amino)]
  binding result: binds
